Test results reported in patent US20140086916A1 (Merck Sharp & Dohme, published 2014).
Values joined by “and” are separate entries in the source; they are usually repeats but may differ in a detail not shown here. Identical values can stand only once. Like-named read-outs stand apart in the source and are kept apart here.

T1: FcγRIIA H (UniProt P12318 34-217, limits assumed)
T1 construct: also called FcgRIIA H
T1 sequence (looked up): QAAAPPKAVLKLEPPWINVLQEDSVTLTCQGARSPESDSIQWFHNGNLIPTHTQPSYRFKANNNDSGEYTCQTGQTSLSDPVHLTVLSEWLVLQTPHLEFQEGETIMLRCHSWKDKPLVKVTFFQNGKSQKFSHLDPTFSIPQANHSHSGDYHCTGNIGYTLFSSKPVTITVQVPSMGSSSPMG

T2: FcγRIIb (Pichia pastoris produced) (UniProt P31994 43-217, limits assumed)
T2 construct: also called FcgRIIB; CD32B
T2 sequence (looked up): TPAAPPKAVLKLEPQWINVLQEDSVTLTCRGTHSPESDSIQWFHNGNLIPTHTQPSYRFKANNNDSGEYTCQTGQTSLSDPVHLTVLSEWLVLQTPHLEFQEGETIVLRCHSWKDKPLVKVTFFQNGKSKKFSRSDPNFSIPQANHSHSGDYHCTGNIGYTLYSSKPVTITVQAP


Columns and labels:
FcγRIIA H [1] = molecular target: T1, FcγRIIA H; experiment: fold change of the Table 12 affinities
Description: (§1) Fcγ receptor binding assays were carried out as described (Shields, et al. (2001) J. Biol. Chem. 276:6591-6604) with minor modifications. High protein binding 96-well plates (Corning Costar) were coated with 100 μL per well of Fcγ receptor solutions in PBS at the following concentrations: 1 μg/mL for both FcγRI (R&D Systems) and FcγRIIa (Pichia pastoris produced), 2 μg/mL for FcγRIIb (P. pastoris produced), 0.8 μg/mL for FcγRIIIa-F158, and 0.4 μg/mL for FcγRIIIa-V158 (both P. pastoris produced). All Pichia pastoris produced receptors were expressed and purified as described (Li, et al. (2006) Nature Biotechnology 24:210-215). Monomeric antibody samples added to the FcγRI plate were serially diluted in assay diluent (1×PBS, 1% BSA, and 0.05% Tween20) and 100 μL, per well was added to the plate. Antibody samples prepared for the remaining receptors require a one hour dimerization step with half molar ratio of goat anti-human IgG F(ab′)2 F(ab′)2 that is conjugated with alkaline phosphatase for detection. These dimerized F(ab′)2/antibody complexes were also serially diluted and 100 μL per well were added to the remaining receptor plates and all plates were incubated for one hour at room temperature. FcγRI bound sample antibody was detected using the same goat anti-human IgG F(ab′)2 alkaline phosphatase conjugated F(ab′)2. Sample antibody binding was quantified by measuring excitation at 340 nm and emission at 465 nm after 18 hour incubation with SuperPhos, 4-MUP Fluorescence AP Substrate Detection System (Virolabs).

[2] = molecular target: T2, FcγRIIb (Pichia pastoris produced); experiment: fold change of the Table 12 affinities
Description: as §1

[3] = molecular target: T3, FcγRIIIa-F158 (Pichia pastoris produced) (UniProt P08637 17-208, limits assumed); experiment: fold change of the Table 12 affinities
T3 construct: also called FcγRIIIA LF; FcgRIIIA LF
T3 sequence (P08637 17-208 limits assumed): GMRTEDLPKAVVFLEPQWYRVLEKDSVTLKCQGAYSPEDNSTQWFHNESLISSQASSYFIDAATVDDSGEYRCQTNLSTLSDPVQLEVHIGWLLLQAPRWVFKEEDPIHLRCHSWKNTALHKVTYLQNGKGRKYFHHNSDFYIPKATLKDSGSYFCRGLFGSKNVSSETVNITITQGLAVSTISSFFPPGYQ
Description: as §1

[4] = molecular target: T2, FcγRIIb (Pichia pastoris produced); experiment: FcγR affinity assay 'as described in Example 7', n = 3; printed as Affinity (nM) ± STDEV
Description: as §1

FcγRIIA H [5] = molecular target: T1, FcγRIIA H; experiment: FcγR affinity assay 'as described in Example 7', n = 3; printed as Affinity (nM) ± STDEV; footnote: values > ~5000 nM mean a poor binder
Description: as §1

[6] = molecular target: T3, FcγRIIIa-F158 (Pichia pastoris produced); experiment: as above
Description: as §1

[7] = molecular target: T4, FcγRIIIa-V158 (Pichia pastoris produced) (UniProt P08637 17-208, limits assumed); experiment: as above
T4 construct: also called FcγRIIIA LV; FcgRIIIA LV
T4 sequence (P08637 17-208 F176V limits assumed): as the sequence (P08637 17-208 limits assumed) above, with F160V counted along it
Description: as §1

wild-type human PCSK9 = molecular target: T5, wild-type human PCSK9 (human, UniProt Q8NBP7 31-692, limits assumed); experiment: SPR (Biacore T100), average KD of the six YGLY25267 runs
T5 construct: also called PCSK9 antigen
Description: The CM5 chip was immobilized on all flowcells with mouse anti-human IgG (Fc specific) according to the Biacore Human Antibody Capture Kit (Cat# BR-1008-39) to ˜7000RU. Anti-PCSK9 antibodies were captured on the chip to ˜500RU followed by analyte injections of wild-type human PCSK9 from 64.1 nM to 2.0 nM. Each flowcell was regenerated between each analyte injection with 3M MgCl for 40 seconds at 10 uL/min. Data was analyzed with Biacore T100 Evaluation Software using the 1:1 binding model using at least 5 point concentration range sensogram.

FcγRIIA H [8] = molecular target: T1, FcγRIIA H; experiment: fold change of the Table 12 affinities (arrow not given)
Description: as §1, with “These dimerized F(ab′)2/antibody complexes were also serially diluted and 100 μL per well were added to the remaining receptor plates and all plates were incubated for one hour at room temperature.” left out

[9] = molecular target: T4, FcγRIIIa-V158 (Pichia pastoris produced); experiment: fold change of the Table 12 affinities; Table 13 fold change computed from the Table 12 affinities
Description: as §1, with “These dimerized F(ab′)2/antibody complexes were also serially diluted and 100 μL per well were added to the remaining receptor plates and all plates were incubated for one hour at room temperature.” left out

[10] = molecular target: T3, FcγRIIIa-F158 (Pichia pastoris produced); experiment: fold change of the Table 12 affinities (arrow not given); Table 13 fold change computed from the Table 12 affinities
Description: as §1, with “These dimerized F(ab′)2/antibody complexes were also serially diluted and 100 μL per well were added to the remaining receptor plates and all plates were incubated for one hour at room temperature.” left out

[11] = molecular target: T2, FcγRIIb (Pichia pastoris produced); experiment: ELISA-type plate assay, FcγR coated, antibody dimerized with AP-conjugated goat anti-human IgG F(ab')2, RFU readout
Description: as §1

[12] = molecular target: T2, FcγRIIb (Pichia pastoris produced); experiment: as above; remark: listed apart in the source
Description: as §1

[13] = molecular target: T2, FcγRIIb (Pichia pastoris produced); experiment: as above; remark: listed apart in the source
Description: as §1

[14] = molecular target: T2, FcγRIIb (Pichia pastoris produced); experiment: as above; remark: listed apart in the source
Description: as §1

[15] = molecular target: T3, FcγRIIIa-F158 (Pichia pastoris produced); experiment: FcγR affinity assay 'as described in Example 7', n = 3; printed as Affinity (nM) ± STDEV; footnote: values > ~5000 nM mean a poor binder; Table 12 affinity (nM) assay, n = 3; value outside the tested concentration range
Description: as §1, with “These dimerized F(ab′)2/antibody complexes were also serially diluted and 100 μL per well were added to the remaining receptor plates and all plates were incubated for one hour at room temperature.” left out

[16] = molecular target: T4, FcγRIIIa-V158 (Pichia pastoris produced); experiment: as above
Description: as §1, with “These dimerized F(ab′)2/antibody complexes were also serially diluted and 100 μL per well were added to the remaining receptor plates and all plates were incubated for one hour at room temperature.” left out

fold change in affinity vs hFcDM (FcγRIIA H [1]) [fold]	fold change in affinity vs hFcDM [2] [fold]	fold change in affinity vs hFcDM [3] [fold]	Kd [4] [nM]	Kd (FcγRIIA H [5]) [µM]	Kd [6] [µM]	Kd [7] [µM]	fold change in affinity vs 1F11 IgG1 GS5.0 [2] [fold]	Kd (wild-type human PCSK9) [nM]	fold change in affinity vs 1F11 IgG1 GS5.0 (FcγRIIA H [8]) [fold]	fold change in affinity vs 1F11 IgG1 GS5.0 [9] [fold]	fold change in affinity vs 1F11 IgG1 GS5.0 [10] [fold]	EC50 (read off the curve) [11]	EC50 (read off the curve) [12] [µg/mL]	EC50 (read off the curve) [13] [µg/mL]	EC50 (read off the curve) [14] [µg/mL]	Kd [15] [µM]	Kd [16] [µM]	Binder
1	100	9	28	9.13	30.6	6.4												human IgG1 Fc ("hFc") QM (F243A/V264A/S267E/L328F quadruple mutein Fc domain) (other, Fc fragment of human IgG1 with hinge, produced in Pichia pastoris GFI6.0 host YGLY22834; also called YGLY28722; YGLY28725) AEPKSCDKTHTCPPCPAPELLGGPSVFLAPPKPKDTLMISRTPEVTCVVADVEHEDPEVKFNWYVDGVEVHNAKTKPREEQYNSTYRVVSVLTVLHQDWLNGKEYKCKVSNKAFPAPIEKTISKAKGQPREPQVYTLPPSRDELTKNQVSLTCLVKGFYPSDIAVEWESNGQPENNYKTTPPVLDSDGSFFLYSKLTVDKSRWQQGNVFSCSVMHEALHNHYTQKSLSLSPGK
			29	8.15			19	3.64	9	> 10000	103	~0.04 µg/mL and ~0.1 µg/mL	~0.05	~0.03	~0.04	> 5	> 5	1F11 IgG1 F243A/V264A/S267E/L328F quadruple mutein anti-PCSK9 antibody (antibody, Produced in Pichia pastoris GFI6.0; The strains give the same polypeptide with different N-glycan profiles; also called 1F11 QM; YGLY25265) heavy: QVQLVQSGAEVKKPGASVKVSCKVSGYTFTDYYMNWVRQAPGQGLEWIGDINPNNGGAIYNQKFKGRATLTVDKSTSTAYMELRSLRSDDTAVYYCTSGIITEIAEDFWGQGTLVTVSSASTKGPSVFPLAPSSKSTSGGTAALGCLVKDYFPEPVTVSWNSGALTSGVHTFPAVLQSSGLYSLSSVVTVPSSSLGTQTYICNVNHKPSNTKVDKKVEPKSCDKTHTCPPCPAPELLGGPSVFLAPPKPKDTLMISRTPEVTCVVADVEHEDPEVKFNWYVDGVEVHNAKTKPREEQYNSTYRVVSVLTVLHQDWLNGKEYKCKVSNKAFPAPIEKTISKAKGQPREPQVYTLPPSRDELTKNQVSLTCLVKGFYPSDIAVEWESNGQPENNYKTTPPVLDSDGSFFLYSKLTVDKSRWQQGNVFSCSVMHEALHNHYTQKSLSLSPG light: DIQMTQSPSSLSASVGDRVTITCKASQNVGTNVVWYQQKPGKAPKALIHSASYRYSGVPSRFSGSGSGTDFTLTISSLQPEDFATYYCQQYKTYPYTFGQGTKVEIKRTVAAPSVFIFPPSDEQLKSGTASVVCLLNNFYPREAKVQWKVDNALQSGNSQESVTEQDSKDSTYSLSSTLTLSKADYEKHKVYACEVTHQGLSSPVTKSFNRGEC
